Test results reported in patent US20240270853A1 (Chugai, published 2024).

T1: mouse DDR2 delta DSL-EJXM (stably expressed on Ba/F3 cell line) (mouse, UniProt Q62371 22-854)
T1 construct: Full length mouse DDR2 with Gln201-Val393 deleted; also called mouse DDR2 fragment with DSL domain and EJXM region (Gln201-Val393) deleted
T1 sequence: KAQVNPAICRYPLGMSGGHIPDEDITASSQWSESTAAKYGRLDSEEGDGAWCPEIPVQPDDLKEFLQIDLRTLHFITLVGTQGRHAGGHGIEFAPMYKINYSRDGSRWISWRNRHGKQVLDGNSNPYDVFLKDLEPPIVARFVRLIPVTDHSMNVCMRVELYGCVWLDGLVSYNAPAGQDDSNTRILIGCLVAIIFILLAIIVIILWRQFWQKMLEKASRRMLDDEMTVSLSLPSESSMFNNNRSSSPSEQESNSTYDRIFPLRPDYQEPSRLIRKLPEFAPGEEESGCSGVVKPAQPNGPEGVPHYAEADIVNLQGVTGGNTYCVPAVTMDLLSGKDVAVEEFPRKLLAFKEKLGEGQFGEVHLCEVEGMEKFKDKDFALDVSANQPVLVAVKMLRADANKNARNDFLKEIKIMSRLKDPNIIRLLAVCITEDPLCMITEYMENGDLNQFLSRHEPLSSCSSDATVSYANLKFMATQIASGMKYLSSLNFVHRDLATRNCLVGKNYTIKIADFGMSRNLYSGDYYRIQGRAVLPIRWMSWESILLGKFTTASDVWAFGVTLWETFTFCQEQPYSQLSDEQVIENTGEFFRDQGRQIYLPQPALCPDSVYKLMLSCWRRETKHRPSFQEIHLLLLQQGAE

T2: full length mouse DDR2 (stably expressed on Ba/F3 cell line) (mouse, UniProt Q62371 22-854)
T2 construct: also called moDDR2
T2 sequence: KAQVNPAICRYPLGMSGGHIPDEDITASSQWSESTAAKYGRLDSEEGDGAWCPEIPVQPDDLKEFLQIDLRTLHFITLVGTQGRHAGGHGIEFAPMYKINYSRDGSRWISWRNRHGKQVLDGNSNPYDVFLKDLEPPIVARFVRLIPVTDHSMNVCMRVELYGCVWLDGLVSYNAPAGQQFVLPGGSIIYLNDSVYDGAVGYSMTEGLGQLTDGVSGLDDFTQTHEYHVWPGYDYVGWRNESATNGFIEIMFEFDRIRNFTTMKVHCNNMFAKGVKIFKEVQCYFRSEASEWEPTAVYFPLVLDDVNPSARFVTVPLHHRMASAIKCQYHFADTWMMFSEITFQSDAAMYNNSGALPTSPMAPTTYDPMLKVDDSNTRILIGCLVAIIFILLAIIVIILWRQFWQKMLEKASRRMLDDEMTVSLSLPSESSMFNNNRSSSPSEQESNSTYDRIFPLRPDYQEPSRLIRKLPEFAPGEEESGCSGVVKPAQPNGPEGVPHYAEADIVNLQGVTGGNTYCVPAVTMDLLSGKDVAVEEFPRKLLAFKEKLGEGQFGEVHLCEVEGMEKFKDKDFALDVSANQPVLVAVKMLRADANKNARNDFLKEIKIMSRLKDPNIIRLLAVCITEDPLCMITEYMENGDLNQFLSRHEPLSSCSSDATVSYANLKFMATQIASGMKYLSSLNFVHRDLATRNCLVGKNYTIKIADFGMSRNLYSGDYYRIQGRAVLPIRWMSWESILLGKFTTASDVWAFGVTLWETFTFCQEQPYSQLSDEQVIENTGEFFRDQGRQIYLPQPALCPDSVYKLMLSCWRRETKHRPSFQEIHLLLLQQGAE


Assays:
[1] = molecular target: T1, mouse DDR2 delta DSL-EJXM (stably …); test: flow cytometry on Ba/F3 cells expressing mouse DDR2 delta DSL-EJXM
Protocol: Mean Fluorescent Intensity (MFI) of each antibody was measured by flow cytometry using Ba/F3 cell line that stably expresses mouse DDR2 fragment in which Discoidin-like (DSL) domain and extracellular juxtamembrane (EJXM) region were deleted from full length mouse DDR2 (mouse DDR2 delta DSL-EJXM). Names under the horizontal axis are names of the tested antibodies. IC17dK is an anti-KLH antibody used as a negative control.
To map more detailed binding epitope of anti-DDR2 antibodies, fragment of mouse DDR2, in which discoidin-like (DSL) domain and extracellular juxtamembrane (EJXM) region (Gln201-Val393) are deleted from full length mouse DDR2 (mouse DDR2 delta DSL-EJXM) was made. Mouse DDR2 delta DSL-EJXM stably-expressing Ba/F3 cell line was prepared. Binding of the antibodies to this cell line was measured by flow cytometry and MFI value was acquired. Epitope of antibodies which can bind to full length mouse DDR2 but not to mouse DDR2 delta DSL-EJXM would be DSL-EJXM region. Epitope of antibodies which can bind to both full length mouse DDR2 and mouse DDR2 delta DSL-EJXM would be discoidin (DS) domain. In Table2, “Yes” means that tested antibody can bind to the cell line and “No” means that antibody cannot bind to the cell line.

[2] = molecular target: T2, full length mouse DDR2 (stably …); test: flow cytometry on Ba/F3 cells expressing full length mouse DDR2, one-arm format
Protocol: Mean Fluorescent Intensity (MFI) of each antibody was measured by flow cytometry using Ba/F3 cell line that stably expresses full length mouse DDR2. Names under the horizontal axis are names of the tested antibodies. IC17dK is an anti-KLH antibody used as a negative control.
To determine antibody binding to mouse DDR2, flow cytometry analysis was carried out by using mouse-DDR2-stably-expressing Ba/F3 cell line. One-arm format antibodies, which contains one antibody variable region in each molecule, were prepared to evaluate the binding by affinity mode.

Binder | binding result [1] | binding result [2]
DAB0052 (antibody, V domains shown, Variable regions from immunized rabbits) VH: QSVEESGGRLVTPGTPLTLTCTVSGFSLNRYTGIWVRQAPGKGLEWIGIISSDDRTWYASWAKGRFTISKTSTTVDLKITSPTIEDTATYFCARDVGGDSWFWGLWGQGTLVTVSS VL: DIVMTQTPASVEAAVGGTVTIKCQASQSISSWLAWYQQKPGQPPKLLIYYASTLASGVPSRFSGSGSGTEFTLTISDLECADAATYYCQSNYYSSSNSNYGHAFGGGTKVEIK | no binding | binds
DAB0009 (antibody, V domains shown, Variable regions from immunized rabbits) VH: QSVEESGGRLVTPGTPLTLTCAVSGFSLNSHVMGWVRQAPGRGLECIGIIAVSGDIYYANWAKGRFTISKTSTTVDLRITSPTTEDTATYFCGSPTVINNNNLWGQGTLVTVSS VL: AQVLTQTASPVSAAVGGTVTINCQSSQNVYGNNYLSWFQQKPGQPPKLLIYSTSTLASGVSSRFKGSGSGTQFTLTISDLECADAATYYCLGGYDCNIVDCRAFGGGTKVEIK | no binding | binds
DAB0071 (antibody, V domains shown, Variable regions from immunized rabbits) VH: QSLEESGGRLVTPGGSLTLTCTASGFSLSAYYMQWVRQAPGKGLEWIGWINTGGSAYYPSWARGRFTISKTSTTVDLKITSPTTEDTATYFCARSDASVHQFNLWGQGTLVTVSS VL: DVVMTQTPASVEAAVGGTVTIKCQASESIGNALAWYQQRPGQPPKLLIYYASTLESGVPSRFKGSGSGTEFTLTISDLECADAATYYCQCTYGSGSSRGNAFGGGTKVEIK | no binding | binds
